Data taken from patent US20230285504A1, “INHIBITION OF REPERFUSION INJURY WITH A PSD-95 INHIBITOR” (NONO INC., priority 2020, published 2023).
Like-named read-outs stand apart in the source and are kept apart here.

Tests used:
[1] = test system: embolic middle cerebral artery occlusion (eMCAO)
Protocol: Nerinetide (7.6 mg/kg) was administered as an intravenous bolus injection either 30 minutes before, or simultaneously with, the onset of a 60-minute infusion of rt-PA (5.4 mg/kg with a 10% bolus followed by 90% over 60 minutes). […] Experimental timeline. […] Hemispheric Infarct volume measurements 24 hours after eMCAo. […] Percentage of hemispheric brain swelling 24 hours after eMCAo and (D). Neurological scores 24 hours after eMCAo. Treatments were administered intravenously at the times indicated in (A). Bars represent mean±SD, with all individual data points plotted. Significant differences (in B) and (in C) are indicated with an asterisk when compared to the control group/nerinetide alone or with a number sign when compare to the thrombolytic agent (one-way ANOVA post hoc Tukey's correction for multiple comparisons test, *P<0.01 or #P <0.01, respectively) N=12-15 animals/group. Significant differences (in D) are indicated with an asterisk when compared to the control group/nerinetide alone or with a number sign when compare to the thrombolytic agent (Kruskal-Wallis analysis of variance on ranks with a post-hoc Dunn's correction for multiple comparisons test, *P<0.01 or #P<0.01, respectively).
To test this, male Sprague-Dawley rats (10-12 weeks old; 270-310 g; Charles River, Montreal, QC, Canada) were subjected to embolic middle cerebral artery occlusion (eMCAO), produced by the introduction of an autologous blood thrombus into the middle cerebral artery. Reperfusion was achieved by treatment with intravenous alteplase at a total dose of 5.4 mg/kg beginning at 90 minutes after ischemia onset. Alteplase was administered using the human injection protocol in which 10% of the total dose is given as a bolus, with the remainder 90% of the dose being given over a 60-minute infusion. The dose of alteplase was 6 times the human dose, in anticipation that the rat fibrinolytic system may be less sensitive to human recombinant tPA. […] Nerinetide was administered either 30 minutes prior to, or concurrently with, the start of the alteplase administration (FIG. 7A) at a dose of 7.6 mg/kg. […] Infarct volumes, hemispheric swelling and neurological scores were evaluated at 24 hours.

[2] = cited from earlier work

plasmin
cleavage of nerinetide by plasmin, LC/MS of fragments after incubation in PBS at 37 C (Tat-NR2B9c): Cleavage products consistent with these sites of cleavage were observed after incubating nerinetide (18 mg/mL) with plasmin (1 mg/mL) in phosphate-buffered saline at 37 °C and analyzing the samples by LC/MS

alteplase [reference compound]
reduction of infarction volume ([1]; alteplase alone 5.4 mg/kg given at 60 min after eMCAO): 26%
reduction of infarction volume ([1]; alteplase alone 5.4 mg/kg given at 90 minutes after eMCAO): 18%
mortality in pilot studies ([1]; rat, alteplase 10x human dose, hemorrhagic conversions of strokes): unacceptable mortality rates
plasma half-life in human plasma ([2]; in vivo): about five

B1: Plasmin: serine protease activated by thrombolytics to dissolve fibrin blood clots; cleaves nerinetide (protein, UniProt P00747 20-580; P00747 581-810, looked up)
Plasmin heavy chain A: EPLDDYVNTQGASLFSVTKKQLGAGSIEECAAKCEEDEEFTCRAFQYHSKEQQCVIMAENRKSSIIIRMRDVVLFEKKVYLSECKTGNGKNYRGTMSKTKNGITCQKWSSTSPHRPRFSPATHPSEGLEENYCRNPDNDPQGPWCYTTDPEKRYDYCDILECEEECMHCSGENYDGKISKTMSGLECQAWDSQSPHAHGYIPSKFPNKNLKKNYCRNPDRELRPWCFTTDPNKRWELCDIPRCTTPPPSSGPTYQCLKGTGENYRGNVAVTVSGHTCQHWSAQTPHTHNRTPENFPCKNLDENYCRNPDGKRAPWCHTTNSQVRWEYCKIPSCDSSPVSTEQLAPTAPPELTPVVQDCYHGDGQSYRGTSSTTTTGKKCQSWSSMTPHRHQKTPENYPNAGLTMNYCRNPDADKGPWCFTTDPSVRWEYCNLKKCSGTEASVVAPPPVVLLPDVETPSEEDCMFGNGKGYRGKRATTVTGTPCQDWAAQEPHRHSIFTPETNPRAGLEKNYCRNPDGDVGGPWCYTTNPRKLYDYCDVPQCAAPSFDCGKPQVEPKKCPGR
Plasmin light chain B: VVGGCVAHPHSWPWQVSLRTRFGMHFCGGTLISPEWVLTAAHCLEKSPRPSSYKVILGAHQEVNLEPHVQEIEVSRLFLEPTRKDIALLKLSSPAVITDKVIPACLPSPNYVVADRTECFITGWGETQGTFGAGLLKEAQLPVIENKVCNRYEFLNGRVQSTELCAGHLAGGTDSCQGDSGGPLVCFEKDKYILQGVTSWGLGCARPNKPGVYVRVSRFVTWIEGVMRNN
modifications: Plasmin
notes: cleaves nerinetide
half-life in human plasma ([2]; has been reported): 4 to 8 h
